Assay results as given in publication doi:10.1101/2023.12.21.572918 (bioRxiv, 2023).

Molecular target: full length native GPC (strain Josiah) expressed on HEK293 cells (Lassa virus, strain Josiah, UniProt P08669)
Assay: flow cytometry on cells
Settings: one partner purified

Chain of full length native GPC (strain Josiah) expressed on HEK293 cells (P08669 whole entry, looked up): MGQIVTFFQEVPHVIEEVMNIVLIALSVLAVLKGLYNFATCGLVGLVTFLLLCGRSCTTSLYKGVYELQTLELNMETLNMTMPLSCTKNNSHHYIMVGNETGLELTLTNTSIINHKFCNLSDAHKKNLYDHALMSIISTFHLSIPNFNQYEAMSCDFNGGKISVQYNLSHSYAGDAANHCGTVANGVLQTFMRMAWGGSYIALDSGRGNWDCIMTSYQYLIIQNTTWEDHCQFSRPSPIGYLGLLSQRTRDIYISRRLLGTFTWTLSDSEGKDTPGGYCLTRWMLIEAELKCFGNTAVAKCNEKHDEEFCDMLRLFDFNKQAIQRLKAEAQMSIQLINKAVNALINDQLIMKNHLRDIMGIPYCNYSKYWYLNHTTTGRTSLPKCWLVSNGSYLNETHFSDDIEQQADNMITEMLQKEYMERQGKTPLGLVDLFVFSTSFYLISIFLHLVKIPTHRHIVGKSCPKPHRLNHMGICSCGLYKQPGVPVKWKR

B1: 25.10C IgG (antibody, V domains shown)
VH: QVQLQESGGGLVKPGGSLRLSCTASGFNFNKYNMNWVRQAPGKGLEWVSSISALSTYIYYADSLKGRFTVSRDNAKNSLFLQMNSLRDDDTAVYYCAREIRRASTWSADLWGRGTLVTVSS
VL: DIQMTQSPSSLSASVGDRVIITCRASQSISSSLNWYQQKPGKAPKLLIYAAVNLETGVPSRFSGSGFGTDFTLAISNVQPEDFATYYCQQSDTRTFGRGTKLDVK
binding result: binds
